Experimental data published in US20260167721A1 (ABLEXIS, published 2026).

B1: CD3 × CD33-BspAb78 (bispecific antibody)
chain 1: EVQLVESGGGLVKFGGSLRLSCAASGFTFSRYSMNWVRQAPGKCLEWVSSISSSSSYKYYADSVKGRFTISRDNAKNSLYLQMNSLRAEDTAVYYCAREGGNSHGMDVWGQGTTVTVSSGGGGSGGGGSGGGGSGGGGSNFMLTQPHSVSESPGKTVTISCTRSSGSIASNYVQWYQQRPGSSPTTVIYEDNQRPSGVPDRFSGSIDSSSNSASLTISGLKTEDEADYYCQSYDSSNRVFGCGTKLTVLDKTHTCPPCPAPEFEGGPSVFLFPPKPKDTLMISRTPEVTCVVVDVSHEDPEVKFNWYVDGVEVHNAKTKPREEQYNSTYRVVSVLTVLHQDWLNGKEYKCKVSNKALPASIEKTISKAKGQPREPQVYTLPPCREEMTKNQVSLWCLVKGFYPSDIAVEWESNGQPENNYKTTPPVLDSDGSFFLYSKLTVDKSRWQQGNVFSCSVMHEALHNHYTQKSLSLSPGK
chain 2: EVQLVQSGAEVKKPGSSVKVSCKASGYTITDSNIHWVRQAPGQSLEWIGYIYPYNGGTDYNQKFKNRATLTVDNPTNTAYMELSSLRSEDTAFYYCVNGNPWLAYWGQGTLVTVSSASTKGPSVFPLAPSSKSTSGGTAALGCLVKDYFPEPVTVSWNSGALTSGVHTFPAVLQSSGLYSLSSVVTVPSSSLGTQTYICNVNHKPSNTKVDKRVEPKSCDKTHTCPPCPAPEFEGGPSVFLFPPKPKDTLMISRTPEVTCVVVDVSHEDPEVKFNWYVDGVEVHNAKTKPREEQYNSTYRVVSVLTVLHQDWLNGKEYKCKVSNKALPASIEKTISKAKGQPREPQVCTLPPSREEMTKNQVSLSCAVKGFYPSDIAVEWESNGQPENNYKTTPPVLDSDGSFFLVSKLTVDKSRWQQGNVFSCSVMHEALHNRFTQKSLSLSPGK
chain 3: DIQLTQSPSTLSASVGDRVTITCRASESLDNYGIRFLTWFQQKPGKAPKLLMYAASNQGSGVPSRFSGSGSGTEFTLTISSLQPDDFATYYCQQTKEVPWSFGQGTKVEVKRTVAAPSVFIFPPSDEQLKSGTASVVCLLNNFYPREAKVQWKVDNALQSGNSQESVTEQDSKDSTYSLSSTLTLSKADYEKHKVYACEVTHQGLSSPVTKSFNRGEC
B2: CD3 × CD33-BspAb79 (bispecific antibody)
chain 1: QVQLQESGPGLVKPSETLSLTCTVSGGSISSYYWSWIRQPAGKCLEWIGRIYASGSTYYNPSLKSRVTMSVDTSKNQFSLKLSSVTAADTAVYYCAREKRSRLYFDYWGQGTLVTVSSGGGGSGGGGSGGGGSGGGGSNFMLTQPHSVSESPGKTVTISCTRSSGSIASNYVQWYQQRPGSSPTTVIYEDNQRPSGVPDRFSGSIDSSSNSASLTISGLKTEDEGDYYCQSYDRSNRVFGCGTKLTVLDKTHTCPPCPAPEFEGGPSVFLFPPKPKDTLMISRTPEVTCVVVDVSHEDPEVKFNWYVDGVEVHNAKTKPREEQYNSTYRVVSVLTVLHQDWLNGKEYKCKVSNKALPASIEKTISKAKGQPREPQVYTLPPCREEMTKNQVSLWCLVKGFYPSDIAVEWESNGQPENNYKTTPPVLDSDGSFFLYSKLTVDKSRWQQGNVFSCSVMHEALHNHYTQKSLSLSPGK
chain 2: B1 chain 2
chain 3: B1 chain 3
B3: CD3 × CD33-BspAb80 (bispecific antibody)
chain 1: QVQLQESGPGLVKPSETLSLTCTVSGGSISSYYWSWIRQPAGKCLEWIGRIYTSGSTKYNPSLKSRVTMSVDTSKNQFSLKLISVTAADTAVYFCARERIRDLYFDYWGQGTLVTVSSGGGGSGGGGSGGGGSGGGGSNFMLTQPHSVSESPGKTVTISCTRTSGSIASNYVQWYQQRPGSSPTTVIYEDNQRPSGVPDRFSGSIDSSSNSASLTISGLKTEDEAAYYCQSYDRSNRVFGCGTKLTVLDKTHTCPPCPAPEFEGGPSVFLFPPKPKDTLMISRTPEVTCVVVDVSHEDPEVKFNWYVDGVEVHNAKTKPREEQYNSTYRVVSVLTVLHQDWLNGKEYKCKVSNKALPASIEKTISKAKGQPREPQVYTLPPCREEMTKNQVSLWCLVKGFYPSDIAVEWESNGQPENNYKTTPPVLDSDGSFFLYSKLTVDKSRWQQGNVFSCSVMHEALHNHYTQKSLSLSPGK
chain 2: B1 chain 2
chain 3: B1 chain 3
B4: CD3 × CD33-BspAb81 (bispecific antibody)
chain 1: QVQLQESGPGLVKPSQTLSLTCTVSGGSISSGGYYWSWIRQHPGKCLEWIGYIYYSGSTYYNPSLKSRVTISVDTSKDQFSLKLSSVTAADTAVYYCARERKTSLPFDIWGQGTMVTVSSGGGGSGGGGSGGGGSGGGGSNFMLTQPHSVSESPGKTVTISCTRSSGSIASNYVQWYQQRPGSSPTTVIYEDNQRPSGVPDRFSGSIDSSSNSASLTISGLKTEDEAYYYCQSFDSSNRVFGCGTKLTVLDKTHTCPPCPAPEFEGGPSVFLFPPKPKDTLMISRTPEVTCVVVDVSHEDPEVKFNWYVDGVEVHNAKTKPREEQYNSTYRVVSVLTVLHQDWLNGKEYKCKVSNKALPASIEKTISKAKGQPREPQVYTLPPCREEMTKNQVSLWCLVKGFYPSDIAVEWESNGQPENNYKTTPPVLDSDGSFFLYSKLTVDKSRWQQGNVFSCSVMHEALHNHYTQKSLSLSPGK
chain 2: B1 chain 2
chain 3: B1 chain 3
B5: CD3 × CD33-BspAb82 (bispecific antibody)
chain 1: EVQLVESGGGLVKPGGSLRLSCAASGLTFSTYSMNWVRQAPGKCLEWVSSISSSGSYVYYADSVKGRFTMSRDNAKNSLYLQMNSLRAEDTAVYYCARERRELLFDYWGQGTLVTVSSGGGGSGGGGSGGGGSGGGGSNFMLTQPHSVSESPGKTVTISCTRSSGSIASNYVQWYQQRPGSSPTSVIYEDNQRPSGVPDRFSGSIDSSSNSASLTISGLKTEDEADYYCQSYDRSNRVFGCGTKLTVLDKTHTCPPCPAPEFEGGPSVFLFPPKPKDTLMISRTPEVTCVVVDVSHEDPEVKFNWYVDGVEVHNAKTKPREEQYNSTYRVVSVLTVLHQDWLNGKEYKCKVSNKALPASIEKTISKAKGQPREPQVYTLPPCREEMTKNQVSLWCLVKGFYPSDIAVEWESNGQPENNYKTTPPVLDSDGSFFLYSKLTVDKSRWQQGNVFSCSVMHEALHNHYTQKSLSLSPGK
chain 2: B1 chain 2
chain 3: B1 chain 3
B6: CD3 × CD33-BspAb83 (bispecific antibody)
chain 1: EVQLVESGGGLVKPGGSLRLSCVASGFTFSRYSMNWVRQAPGKCLEWVSSISSSSRYTYYADSLKGRFIMSRDNAKNSLFLQMNSLRAEDTAVYYCARNLYNALDYWGQGTLVTVSSGGGGSGGGGSGGGGSGGGGSFMLTQPHSVSESPGKTVTISCTRSSGSIASNYVQWYQQRPGSSPTTVIYEDNQRPSGVPDRFSGSIDSSSNSASLTISGLQTEDEADYYCQSYDSSNRVFGCGTKLTVLDKTHTCPPCPAPEFEGGPSVFLFPPKPKDTLMISRTPEVTCVVVDVSHEDPEVKFNWYVDGVEVHNAKTKPREEQYNSTYRVVSVLTVLHQDWLNGKEYKCKVSNKALPASIEKTISKAKGQPREPQVYTLPPCREEMTKNQVSLWCLVKGFYPSDIAVEWESNGQPENNYKTTPPVLDSDGSFFLYSKLTVDKSRWQQGNVFSCSVMHEALHNHYTQKSLSLSPGK
chain 2: B1 chain 2
chain 3: B1 chain 3
B7: CD3 × CD33-BspAb84 (bispecific antibody)
scFv-Fc: EVQVAESGGGLVKPGGSLRLSCAASGFTFSRYSMNWVRQAPGKCLEWVSSISSSGSYTYYADSVKGRFTISRDNAKNSLYLQMNSLRAEDTAVYYCVRERGKGAGMDVWGQGTTVTVSSGGGGSGGGGSGGGGSGGGGSNFMLTQPHSVSESPGKTVTISCTRSSGSIASNYVQWYQQRPGSSPTTVIYEDNQRPSGVPDRFSGSIDSSSNSASLTISGLKTEDEADYYCQSYDSSNRVFGCGTKLTVLGGGGSDKTHTCPPCPAPEFEGGPSVFLFPPKPKDTLMISRTPEVTCVVVDVSHEDPEVKFNWYVDGVEVHNAKTKPREEQYNSTYRVVSVLTVLHQDWLNGKEYKCKVSNKALPASIEKTISKAKGQPREPQVYTLPPCREEMTKNQVSLWCLVKGFYPSDIAVEWESNGQPENNYKTTPPVLDSDGSFFLYSKLTVDKSRWQQGNVFSCSVMHEALHNHYTQKSLSLSPGK
heavy: B1 chain 2
light: B1 chain 3
notes: KiH heterodimer

Biological target: T1, human CD3 (TCR/CD3 complex on the cell surface) (human, UniProt P07766 23-207; P04234 22-171; P09693 23-182)
T1 construct: whole, on cells; Native CD3 on human Pan-T cells or Jurkat wild-type cells; also called CD3 on Pan-T cells; CD3 on Jurkat WT cells
T1 sequence (P07766 23-207, chain 1 of 3): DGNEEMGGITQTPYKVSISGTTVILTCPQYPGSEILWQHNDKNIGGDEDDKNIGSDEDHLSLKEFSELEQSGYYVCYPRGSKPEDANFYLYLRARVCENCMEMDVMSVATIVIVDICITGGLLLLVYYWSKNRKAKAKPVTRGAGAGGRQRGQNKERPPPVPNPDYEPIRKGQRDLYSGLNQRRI
T1 sequence (P04234 22-171, chain 2 of 3): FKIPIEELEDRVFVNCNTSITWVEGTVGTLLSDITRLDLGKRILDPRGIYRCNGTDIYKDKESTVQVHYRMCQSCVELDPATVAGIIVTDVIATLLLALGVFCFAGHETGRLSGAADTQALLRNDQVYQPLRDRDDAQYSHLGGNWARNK
T1 sequence (P09693 23-182, chain 3 of 3): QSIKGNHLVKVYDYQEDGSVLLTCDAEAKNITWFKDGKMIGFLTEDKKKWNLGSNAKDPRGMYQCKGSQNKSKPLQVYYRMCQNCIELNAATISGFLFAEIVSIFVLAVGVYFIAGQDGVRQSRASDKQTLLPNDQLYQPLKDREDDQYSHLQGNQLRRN
Assay: flow cytometry, Jurkat WT cells, 1 ug/mL

Q: With B1 as the binder, how does the gMFI read?
A: 20300 gMFI

Q: Which gMFI does the source give for B2 here?
A: 8830 gMFI

Q: B3 was tested. Which gMFI did it give?
A: 50500 gMFI

Q: Which gMFI does the source give for B4 here?
A: 24100 gMFI

Q: For B5, which gMFI is on record?
A: 54500 gMFI

Q: For B6, which gMFI is on record?
A: 67700 gMFI

Q: How did the gMFI turn out when B7 was run?
A: 35200 gMFI

Biological target: T1, human CD3 (TCR/CD3 complex on the cell …)
Assay: flow cytometry, Pan-T cells, 1 ug/mL

Q: What does the source list for B1?
A: % Positive: 98%; gMFI: 66500 gMFI

Q: For B2, which “% Positive” value is on record?
A: 99.3%

Q: What about the gMFI of the same binder?
A: 34700 gMFI

Q: How did the “% Positive” value turn out when B3 was run?
A: 99.7%

Q: What about the gMFI of the same binder?
A: 330000 gMFI

Q: B4 was tested. Which “% Positive” value did it give?
A: 99.7%

Q: And the gMFI?
A: 79900 gMFI

Q: With B5 as the binder, how does the “% Positive” value read?
A: 99.5%

Q: And the gMFI?
A: 319000 gMFI

Q: Which “% Positive” value does the source give for B6 here?
A: 99.8%

Q: What about the gMFI of the same binder?
A: 566000 gMFI

Q: Which “% Positive” value does the source give for B7 here?
A: 99.9%

Q: And the gMFI?
A: 173000 gMFI

Biological target: T1, human CD3 (TCR/CD3 complex on the cell …)
Assay: flow cytometry, Jurkat WT gMFI over Jurkat KO gMFI, 10 ug/mL

Q: How did the “Jurkat WT/KO (Fold)” value turn out when B1 was run?
A: 9.9 fold

Q: How did the “Jurkat WT/KO (Fold)” value turn out when B2 was run?
A: 8.9 fold

Q: Which “Jurkat WT/KO (Fold)” value does the source give for B3 here?
A: 15 fold

Q: B4 was tested. Which “Jurkat WT/KO (Fold)” value did it give?
A: 13.5 fold

Q: Which “Jurkat WT/KO (Fold)” value does the source give for B5 here?
A: 14.4 fold

Q: B6 was tested. Which “Jurkat WT/KO (Fold)” value did it give?
A: 14.3 fold

Q: For B7, which “Jurkat WT/KO (Fold)” value is on record?
A: 13.9 fold

Biological target: T1, human CD3 (TCR/CD3 complex on the cell …)
Assay: flow cytometry, Jurkat WT gMFI over Jurkat KO gMFI, 1 ug/mL

Q: Which “Jurkat WT/KO (Fold)” value does the source give for B1 here?
A: 6.6 fold

Q: Which “Jurkat WT/KO (Fold)” value does the source give for B2 here?
A: 4 fold

Q: How did the “Jurkat WT/KO (Fold)” value turn out when B3 was run?
A: 13.1 fold

Q: Which “Jurkat WT/KO (Fold)” value does the source give for B4 here?
A: 7.1 fold

Q: Which “Jurkat WT/KO (Fold)” value does the source give for B5 here?
A: 12.9 fold

Q: Which “Jurkat WT/KO (Fold)” value does the source give for B6 here?
A: 14 fold

Q: Which “Jurkat WT/KO (Fold)” value does the source give for B7 here?
A: 10.8 fold

Biological target: T1, human CD3 (TCR/CD3 complex on the cell …)
Assay: flow cytometry, Pan-T cells, 10 ug/mL

Q: What does the source list for B1?
A: % Positive: 99.8%; gMFI: 225000 gMFI

Q: How did the “% Positive” value turn out when B2 was run?
A: 99.4%

Q: What about the gMFI of the same binder?
A: 166000 gMFI

Q: Which results are given for B3?
A: % Positive: 99.8%; gMFI: 486000 gMFI

Q: B4 was tested. Which “% Positive” value did it give?
A: 99.8%

Q: And the gMFI?
A: 369000 gMFI

Q: B5 was tested. Which “% Positive” value did it give?
A: 99.9%

Q: What about the gMFI of the same binder?
A: 462000 gMFI

Q: B6 was tested. Which “% Positive” value did it give?
A: 99.8%

Q: What about the gMFI of the same binder?
A: 598000 gMFI

Q: Which “% Positive” value does the source give for B7 here?
A: 99.9%

Q: What about the gMFI of the same binder?
A: 362000 gMFI

Biological target: T1, human CD3 (TCR/CD3 complex on the cell …)
Assay: flow cytometry, Jurkat WT cells, 10 ug/mL

Q: How did the gMFI turn out when B1 was run?
A: 28800 gMFI

Q: How did the gMFI turn out when B2 was run?
A: 20400 gMFI

Q: How did the gMFI turn out when B3 was run?
A: 59400 gMFI

Q: For B4, which gMFI is on record?
A: 55100 gMFI

Q: B5 was tested. Which gMFI did it give?
A: 58600 gMFI

Q: For B6, which gMFI is on record?
A: 69100 gMFI

Q: Which gMFI does the source give for B7 here?
A: 51000 gMFI
